From paper PMC9133542, “Development of Novel CD47-Specific ADCs Possessing High Potency Against Non-Small Cell Lung Cancer in vitro and in vivo” (Frontiers in Oncology, 2022)

Columns and labels:
[1] = biological target: T1, CD47/ECD (Gln 19 - Pro 139, His Tag, ACROBiosystems) (Homo sapiens, UniProt Q08722-3); assay: ELISA; CD47/ECD coated (0.2 ug per well, PBS pH 7.4, 16 h at 4°C), blocked with 2% BSA in PBST; IgG titrated at 11 two-fold dilutions in PBST with 0.5% BSA, 1 h; detected with HRP/anti-human IgG conjugate; EC50 by ED50 Plus v1.0; n = 3; settings: both partners purified
T1 construct: also called CD47 antigen; CD47/ECD antigen; source: bought: ACROBiosystems (expressed from human 293 cells, HEK293)

[2] = biological target: CD47 on the cell membrane of human lung cancer cell lines A549, SPC-A-1 and 95D (Homo sapiens, UniProt Q08722); assay: cell-based or functional assay
CD47 on the cell membrane of human lung cancer cell lines A549, SPC-A-1 and 95D, sequence (Q08722 19-323): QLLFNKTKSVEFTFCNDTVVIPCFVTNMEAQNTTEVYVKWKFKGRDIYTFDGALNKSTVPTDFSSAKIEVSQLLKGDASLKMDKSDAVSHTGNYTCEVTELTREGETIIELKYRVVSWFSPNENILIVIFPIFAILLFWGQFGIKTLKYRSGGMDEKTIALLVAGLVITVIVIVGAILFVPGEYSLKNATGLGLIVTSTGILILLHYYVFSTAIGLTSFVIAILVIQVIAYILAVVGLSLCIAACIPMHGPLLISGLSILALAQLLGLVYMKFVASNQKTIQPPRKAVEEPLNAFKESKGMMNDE

T1 sequence (Q08722 19-139): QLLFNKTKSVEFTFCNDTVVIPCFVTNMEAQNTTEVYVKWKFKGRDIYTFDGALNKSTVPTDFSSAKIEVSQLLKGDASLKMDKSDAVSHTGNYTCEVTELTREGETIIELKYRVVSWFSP

| EC50 [1] [nM] | Binder | IC50 of cytotoxicity on 95D cells (relative cell viability, WST-1; 0.064-40 nM) [2] [nM] |
| --- | --- | --- |
| 0.13 | 7DC4-VCMMAE (7DC4 conjugated with maleimidocaproyl-valine-citrulline-monomethyl auristatin E) (antibody, V domains shown, as the heavy chain of m2 (mouse Fab part); human IgG1 Fc fragment; as the light chain of m2; Antibody-drug conjugate of m2; drug distribution 2, 4, 6 and 8 per antibody; also called 7DC4-CVMMAE; 7DC4-MMAE; source: 7DC4 from Expi293, reduced with TCEP, conjugated with VCMMAE, purified (Amicon-30 kDa); copies: 2 + 2) VH: QVQLKQSGAELVQPGASVKLSCKASGYTFTNYYMYWLRQRPGQGLEWIGEINPSNGGTDFNEKFKSKATLTVDKSSSTAFMQLSSLTSDDSAVYYCARGGFTMDYWGQGTTVTVSS VL: DVVMTQTPLSLPVSLGDQASISCRSSQSLVHSNGNTYLHWYLQKPGQSPKLLIYKVSNRFSGVPDRFSGSGSGTDFTLKISRVEAEDLGVYFCSQSTHVPLTFGAGTKLELK | ~40 |
| 0.13 | 7DC4 monoclonal antibody (chimeric anti-human CD47, mouse Fab plus human IgG1 Fc) (antibody, V domains shown, human IgG1 Fc fragment; mouse light chain of 7DC4; Chimeric IgG1; also called 7DC4 mAb; 7CD4; source: Expi293, transfected with light and heavy chain plasmids, purified; copies: 2 + 2) VH: QVQLKQSGAELVQPGASVKLSCKASGYTFTNYYMYWLRQRPGQGLEWIGEINPSNGGTDFNEKFKSKATLTVDKSSSTAFMQLSSLTSDDSAVYYCARGGFTMDYWGQGTTVTVSS VL: DVVMTQTPLSLPVSLGDQASISCRSSQSLVHSNGNTYLHWYLQKPGQSPKLLIYKVSNRFSGVPDRFSGSGSGTDFTLKISRVEAEDLGVYFCSQSTHVPLTFGAGTKLELK |  |
| 0.15 | 7DC2-VCMMAE (7DC2 conjugated with maleimidocaproyl-valine-citrulline-monomethyl auristatin E) (antibody, V domains shown, as the heavy chain of m1 (mouse Fab part); human IgG1 Fc fragment; as the light chain of m1; Antibody-drug conjugate of m1; drug distribution 2, 4, 6 and 8 per antibody; also called 7DC-VCMMAE; source: 7DC2 from Expi293, reduced with TCEP, conjugated with VCMMAE, purified (Amicon-30 kDa); copies: 2 + 2) VH: QVQLQQSGPELVKPGASVKMSCKASGYTFTNYFMHWVKQKPGQGLEWIGYINPYNDGTKYNEKFKGKATLTSDKSSSTAYMELSSLTSEDSAVYYCTKGGRYSMDYWGQGTTLTVSS VL: DVVMTQTPLSLPVRLGDEVSISCRSSQTIVFTNGNTYLEWYLQKPGQSPKLLIYKVSNRFSGVPDRFSGSGSGTDFTLTISRVEAEDLGIYYCFQGSHVPYTFGGGTKLELK | ~40 |
| 0.15 | 7DC2 monoclonal antibody (chimeric anti-human CD47, mouse Fab plus human IgG1 Fc) (antibody, V domains shown, human IgG1 Fc fragment; mouse light chain of 7DC2; Chimeric IgG1; also called 7DC2 mAb; 7CD2; source: Expi293, transfected with light and heavy chain plasmids, purified; copies: 2 + 2) VH: QVQLQQSGPELVKPGASVKMSCKASGYTFTNYFMHWVKQKPGQGLEWIGYINPYNDGTKYNEKFKGKATLTSDKSSSTAYMELSSLTSEDSAVYYCTKGGRYSMDYWGQGTTLTVSS VL: DVVMTQTPLSLPVRLGDEVSISCRSSQTIVFTNGNTYLEWYLQKPGQSPKLLIYKVSNRFSGVPDRFSGSGSGTDFTLTISRVEAEDLGIYYCFQGSHVPYTFGGGTKLELK |  |
